We go through one molecule from PMC2173742 (The Journal of Cell Biology, 2003).

Series [1] concerns the target bovine Taxol-stabilized MTs (bovine) (UniProt Q6B856). As to the kind of experiment: co-sedimentation.
Series [2] concerns the molecule itself. In words: SEC + other: velocity sedimentation.

B1: Ase1p–MYC–6xHis (natural protein, budding yeast, UniProt P50275 1-885, looked up)
chain: METATSSPLPIKSRRNSENSGSTTVIPHMNPSLATPLTVSTMVNQSNSKEFMKLTPVRIRDFGSPLKNVSTNYHFLDSENGKGNTMDNMYRENFILISKDLEKLLENLNVIYQNIGYSNTEIITKEKIIFTTISNSIKQFFEQADEELKRLSAENGIEQDILNNILERINDPSGIKTIPDLYIRNAILLQESKTVPQSPKKPLSLLSKKAALDTAKKFVLGSFLPRLRDYLKSLITLKHLIQSVKENLPGLTEADNEAIAEFPELSTLTAYLLQIENGKGDIGLSMKFIIDNRKDILKGSAFKTINEESVKHMNEVIKIYEEEYERRFKSVLTKKVSISSICEQLGTPLATLIGEDFEQDLRSYGEEENSTSEIPNFHPVDRERMSKIDITLEKLQAIHKERADKKRLLMEQCQKLWTRLKISQEYIKTFMRNNSSLSTESLGRISKEVMRLEAMKKKLIKKLISDSWDKIQELWRTLQYSEESRSKFIIVFEELRNSATTLQEDELLLETCENELKRLEEKLTLYKPILKLISDFESLQEDQEFLERSSKDSSRLLSRNSHKILLTEEKMRKRITRHFPRVINDLRIKLEEADGLFDQPFLFKGKPLSEAIDIQQQEIEAKYPRCRVRMQRSKKGKCGANKENKVIKNTFKATESSIRVPIGLNLNDANITYKTPSKKTIQGLTKNDLSQENSLARHMQGTTKLSSPNRRATRLLAPTVISRNSKGNIERPTLNRNRSSDLSSSPRINHTHGEHAVKPRQLFPIPLNKVDTKGSHIPQLTKEKALELLKRSTGTTGKENVRSPERKSSLEDYAQKLSSPYKEPEHSIYKLSMSPEGKFQLNIQQKDIESGFDDTSMMEDENDKDFITWKNEQVSKLNGFSFTDI
The molecule B1 came in with a Kd in series [1] of 300 nM. For the same molecule, the “stoichiometry N” value in series [2] came to 2.

Usually Kd stands for the free concentration of one partner at which half of the binding sites on the other are occupied at equilibrium, for simple one-to-one binding. Read a high Kd as a looser complex. As a reminder, the stoichiometry N is the number of molecules, sites or subunits per partner or assembly.
